Molecular target: EGFR on A431 cells (human) (UniProt P00533)
Experiment: cell-based or functional assay

anti-EGFR antibody (clone 225: the original antibody of cetuximab, Calbiochem)
inhibition of EGFR phosphorylation in A431 cells: 40%

From patent US20130131322A1
